From IntAct's records for PubMed 21444796

B1: Natural cytotoxicity triggering receptor 3 (Homo sapiens), O14931 (parent)
chain: MAWMLLLILIMVHPGSCALWVSQPPEIRTLEGSSAFLPCSFNASQGRLAIGSVTWFRDEVVPGKEVRNGTPEFRGRLAPLASSRFLHDHQAELHIRDVRGHDASIYVCRVEVLGLGVGTGNGTRLVVEKEHPQLGAGTVLLLRAGFYAVSFLSVAVGSTVYYQGKCLTWKGPRRQLPAVVPAPLPPPCGSSAHLLPPVPGG
partner: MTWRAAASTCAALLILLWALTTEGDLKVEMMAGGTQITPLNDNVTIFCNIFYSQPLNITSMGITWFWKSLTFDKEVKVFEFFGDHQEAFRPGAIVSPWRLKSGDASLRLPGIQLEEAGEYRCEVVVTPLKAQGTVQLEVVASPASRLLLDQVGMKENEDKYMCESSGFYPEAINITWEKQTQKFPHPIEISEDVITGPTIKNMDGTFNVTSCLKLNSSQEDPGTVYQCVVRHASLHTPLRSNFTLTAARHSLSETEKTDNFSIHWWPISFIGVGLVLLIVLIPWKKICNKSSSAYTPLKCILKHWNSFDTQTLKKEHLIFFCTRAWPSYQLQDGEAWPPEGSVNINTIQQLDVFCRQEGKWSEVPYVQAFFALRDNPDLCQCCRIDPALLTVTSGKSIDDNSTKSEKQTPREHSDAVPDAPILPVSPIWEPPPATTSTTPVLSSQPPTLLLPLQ

Variants of: B1
Conditions: with nr3l1_human NCR3LG1, Q68D85

Row | Variant | effect of a mutation on the interaction
1 | E65S;R67S | decreasing interaction strength
2 | R109S;E111S;L113A | decreasing interaction strength
3 | I50A;S52A | decreasing interaction strength
4 | R109E;E111R;L113A | decreasing interaction strength
